Holding throughout (assay type): cell-based, human
For data set [1], the system named is AKT(S473) phosphorylation. Put plainly: Inducible AKT phosphorylation in siRNA-transduced MCF-7 cells. The following applies: lentiviral siRNA transduction. The text has this: (§1) NKG2D was immunoprecipitated from standard NP-40 buffer lysates of FACSAria-sorted EpCAM^+CD45^− cancer cells (˜5×10^6 per lane), tumor lines (˜5×10^7 cells; 2×10^7 cells with BT-20), and transfectants (5×10^6 cells) using mAb 5C6 immobilized on AminoLink Plus Coupling Resin (Pierce). DAP10 was immunoprecipitated using rabbit polyclonal antibodies (FL-93; Santa Cruz Biotechnology). Immunoblots were probed with polyclonal antibodies to NKG2D or DAP10 (N-20 and N-17; Santa Cruz Biotechnology), or Grb2 (Cell Signaling Technology) and developed using secondary reagents and Supersignal West Dura Extended Duration Substrate (Pierce). Immunoprecipitation and immunoblot detection of mouse NKG2D utilized a rat mAb (clone 191004; R&D Systems) and goat polyclonal reagent (H-15; Santa Cruz Biotechnology), respectively. […] Phosphoproteins and protein controls were detected using rabbit polyclonal antibodies (to P-mTOR, P-S6K1, and P-4E-BP1), mAbs (clones 7C10, 236B4, and 53H11), and anti-rabbit IgG-HRP (all from Cell Signaling Technology). MAPKs were detected with cells grown to semi-confluence in 6-well plates and desensitized for 24 h. […]

For the next data set, the system named is NKG2D. Kind of data set: NKG2D protein depletion by siRNA (immunoblot). The following applies: CD8 T cells, 2×10^6 per lane.
Excerpt: as §1
For orientation: Immunoblotting shows a protein as a band on a membrane.

In data set [2] the test system is MCF-7-TF cells. Kind of data set: Cell cycle analysis by propidium iodide staining. The following applies: MCF-7-TF cells plated 24 h at near confluence without growth factors; Abs each 10 μg/ml. As for the experimental part: DNA contents were determined with 70% EtOH-permeabilized and fixed cells treated with PI/RNase staining buffer (BD Pharmingen). Prior to analysis, cells were plated for 24 h in the presence or absence of each 10 μg/ml anti-MIC and -ULBP3 and -ULBP4 mAb or control Ig. Flow cytometry data were analysed using FlowJo cell cycle software with quantitative analysis based on Dean-Jett-Fox model curve fitting. Cellular ATP was determined using the ATPlite luminescence assay system (PerkinElmer). Real-time oxygen consumption and extracellular acidification rates were measured employing the Seahorse Bioscience Extracellular Flux Analyzer XF24 with cells (3×10^4) seeded in custom 24-well plates and grown overnight (34). Metabolic rates were calculated from multiple measurements in buffer-free medium within one h at 37° C. Differences in cell growth rates were accounted for by using fluorescence emission values of Hoechst stainings to calculate normalization factors for cell number corrections.
The inventors thus explored effects on cellular functions resulting from NKG2D stimulation using the MCF-7 mock-transfected control and MCF-7-TF model cells. Cells were plated at near confluence in the absence of growth factors with or without the relevant anti-MIC and anti-ULBP1/3/4 Abs or control Ig 24 h before assay time (FIG. 7). […]

The subject of data set [3] is MCF-7-TF cells. Put plainly: EMT-like phenotype of MCF-7-TF cells (phase contrast, IF microscopy, immunoblot). The text has this: Diagnostic of EMT, among other criteria, are reduced expression of E-cadherin and induction of N-cadherin (Polyak and Weinberg, 2009; Thiery et al., 2009; Yang and Weinberg, 2008). […] Among key transcription factors is SNAI1 and Twist, which were induced in MCF-7-TF as well as in MCF-10A-TF and SUM149PT-TF cells (FIG. 8C). MCF-7-TF cells also scored increased migratory and invasive activities in Matrigel assays (FIG. 8D). Both ERK- and AKT-initiated signaling have been implicated in cancer EMT (Thiery et al., 2009).

Data set [4] concerns MCF-7-TF cells. Put plainly: Migration through porous filters and invasion in Matrigel assay. As for the experimental part:
MCF-7 cells were evaluated for stimulation of cellular migration through porous filters and for invasion of reconstituted basement membranes in MATRIGEL assays (FIG. 10).

From patent publication US10040853B2, “Methods and compositions involving NKG2D inhibitors and cancer” (Fred Hutchinson Cancer Research Center, priority 2011, dated 2018) come the findings set out here.

B1: RNAi targeting of NKG2D: lentivirally expressed hairpin siRNA targeting NKG2D (KLRK1) mRNA positions 690-710; oligonucleotides SEQ ID NO:19 and 20 (nucleic acid, listed as Homo sapiens)
chain 1: CTAGACCCAACCTACTAACAATAATTTCAAGAGAATTATTGTTAGTAGGTTGGGTTTTTGAT
chain 2: ATCAAAAAACCCAACCTACTAACAATAATTCTCTTGAAATTATTGTTAGTAGGTTGGGT
modifications: the letters are possibly those of the target site
Regarding B1, in data set [1], the “inducible AKT(S473) phosphorylation” value is on record as “Absence of inducible AKT(S473) phosphorylation”. In the data set on NKG2D, the “depletion of NKG2D” value is on record as “depletion”. Besides, the “effect on enlarged proportions of cells in S and G2 phase” value with MCF-7-TF cells [2] was “reversed”. For the same molecule, the “changes in epithelial and mesenchymal marker proteins (E-cadherin, N-cadherin)” value in the data set on MCF-7-TF cells [3] (IF microscopy and immunoblot) is listed as “reversed”. Further, the cell morphology entry with MCF-7-TF cells [3] (phase contrast microscopy) was “restored the parental cell morphology”. Further, the “migratory and invasive activities” value in the data set with MCF-7-TF cells [4] is on record as “suppressed”.
